Measured values reported in paper PMC6316659.

Tests used:
[1] = biological target: native BPL2 (Bryopsis plumosa mannose-binding lectin 2) (Bryopsis plumosa)
[2] = biological target: rD4BPL2 (recombinant Bryopsis plumosa lectin 2, tetrameric tandem repeat construct) (Bryopsis plumosa)

minimum concentration of fetuin that inhibits the agglutination of a 4% horse erythrocyte suspension by 4 HU lectin [1]: 195 µg/mL
minimum concentration of fetuin that inhibits the agglutination of a 4% horse erythrocyte suspension by 4 HU lectin [2]: 12.2 µg/mL
B1: bovine serum fetuin (natural protein)
chain: IPLDPVAGYKEPACDDPDTEQAALAAVDYINKHLPRGYKHTLNQIDSVKVWPRRPTGEVYDIEIDTLETTCHVLDPTPLANCSVRQQTQHAVEGDCDIHVLKQDGQFSVLFTKCDSSPDSAEDVRKLCPDCPLLAPLNDSRVVHAVEVALATFNAESNGSYLQLVEISRAQFVPLPVSVSVEFAVAATDCIAKEVVDPTKCNLLAEKQYGFCKGSVIQKALGGEDVRVTCTLFQTQPVIPQPQPDGAEAEAPSAVPDAAGPTPSAAGPPVASVVVGPSVVAVPLPLHRAHYDLRHTFSGVASVESSSGEAFHVGKTPIVGQPSIPGGPVRLCPGRIRYFKI
